Reference: PMC4725248, “Yeast mitochondrial HMG proteins”

Experiments:
[1] = target: T1, CpGcf1p (CpGcf1noMP) (Candida parapsilosis CBS604, UniProt G8BDQ3 34-251); assay: EMSA; conditions: 120 nM protein, EMSA: 20 mM Tris/HCl pH 7.5, 1 mM EDTA, 50 mM NaCl, 100 ug/ml BSA, 3 nM DNA, 10 min 30 C, gel 0.5x TBE 4 C, EM: 20 mM HEPES pH 7.5, 1 mM EDTA, room …
T1 sequence: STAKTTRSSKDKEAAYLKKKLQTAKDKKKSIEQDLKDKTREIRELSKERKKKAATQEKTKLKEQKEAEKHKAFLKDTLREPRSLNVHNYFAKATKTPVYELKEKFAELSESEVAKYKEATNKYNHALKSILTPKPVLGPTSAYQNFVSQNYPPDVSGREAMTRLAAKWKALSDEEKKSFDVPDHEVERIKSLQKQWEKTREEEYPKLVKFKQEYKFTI

[2] = target: T2, ScAbf2p (ScAbf2noMP) (Saccharomyces cerevisiae, UniProt Q02486 27-183); assay: EMSA; conditions: 50% shift, 3 nM probe, EMSA: 20 mM Tris/HCl pH 7.5, 1 mM EDTA, 50 mM NaCl, 100 ug/ml BSA, 3 nM DNA, 10 min 30 C, gel 0.5x TBE 4 C, EM: 20 mM HEPES pH 7.5, 1 mM EDTA, room …
T2 sequence: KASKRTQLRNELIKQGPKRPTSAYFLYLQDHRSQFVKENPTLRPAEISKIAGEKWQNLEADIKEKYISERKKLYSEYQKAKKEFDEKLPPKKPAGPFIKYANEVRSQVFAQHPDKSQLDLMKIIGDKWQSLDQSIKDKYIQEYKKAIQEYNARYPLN

[3] = system: YlMhb1p (YlMhb1noMP) (Yarrowia lipolytica); assay: EMSA; conditions: 50% shift, 3 nM probe, EMSA: 20 mM Tris/HCl pH 7.5, 1 mM EDTA, 50 mM NaCl, 100 ug/ml BSA, 3 nM DNA, 10 min 30 C, gel 0.5x TBE 4 C, EM: 20 mM HEPES pH 7.5, 1 mM EDTA, room …
[4] = target: T3, CpGcf1p (CpGcf1noMP) (Candida parapsilosis CBS604) (UniProt G8BDQ3); assay: EMSA; conditions: EMSA: 20 mM Tris/HCl pH 7.5, 1 mM EDTA, 50 mM NaCl, 100 ug/ml BSA, 3 nM DNA, 10 min 30 C, gel 0.5x TBE 4 C, EM: 20 mM HEPES pH 7.5, 1 mM EDTA, room …
T3 sequence: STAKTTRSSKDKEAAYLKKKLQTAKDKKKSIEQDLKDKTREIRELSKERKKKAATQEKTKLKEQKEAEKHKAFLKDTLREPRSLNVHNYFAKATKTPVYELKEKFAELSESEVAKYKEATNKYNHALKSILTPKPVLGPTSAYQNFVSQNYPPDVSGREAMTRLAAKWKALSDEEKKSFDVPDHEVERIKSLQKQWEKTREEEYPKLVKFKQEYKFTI

[5] = target: T4, ScAbf2p (ScAbf2noMP) (Saccharomyces cerevisiae) (UniProt Q02486); assay: EMSA; conditions: EMSA: 20 mM Tris/HCl pH 7.5, 1 mM EDTA, 50 mM NaCl, 100 ug/ml BSA, 3 nM DNA, 10 min 30 C, gel 0.5x TBE 4 C, EM: 20 mM HEPES pH 7.5, 1 mM EDTA, room …
T4 sequence: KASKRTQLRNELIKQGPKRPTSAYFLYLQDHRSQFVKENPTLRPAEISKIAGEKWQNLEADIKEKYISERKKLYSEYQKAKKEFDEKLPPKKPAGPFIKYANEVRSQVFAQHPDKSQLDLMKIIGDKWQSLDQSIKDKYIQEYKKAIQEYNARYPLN

[6] = target: T2, ScAbf2p (ScAbf2noMP); assay: EMSA; EMSA: 20 mM Tris/HCl pH 7.5, 1 mM EDTA, 50 mM NaCl, 100 ug/ml BSA, 3 nM DNA, 10 min 30 C, gel 0.5x TBE 4 C; EM: 20 mM HEPES pH 7.5, 1 mM EDTA, 50 mM NaCl, room; conditions: protein: recombinant; tags: GST removed with PreScission protease (pGEX-6P-2); label: 32P, 5' end of S6; blunt
[7] = target: T1, CpGcf1p (CpGcf1noMP); assay: as above; conditions: protein: recombinant, tags: GST removed with PreScission protease (pGEX-6P-2), label: 32P, blunt
[8] = target: T2, ScAbf2p (ScAbf2noMP); assay: EMSA; almost quantitative shift; EMSA: 20 mM Tris/HCl pH 7.5, 1 mM EDTA, 50 mM NaCl, 100 ug/ml BSA, 3 nM DNA, 10 min 30 C, gel 0.5x TBE 4 C; EM: 20 mM HEPES pH 7.5, 1 mM EDTA, 50 mM NaCl, room; conditions: protein: recombinant; tags: GST removed with PreScission protease (pGEX-6P-2); label: 32P, 5' end of S8; blunt

Molecule: Holliday junction (HJ)
- binding signal (fold higher than 3' Flap) [1]: 8

Molecule: fluorescent dsDNA
- K half [2]: 30 nM
- K half [3]: 120 nM

Molecule: ACACCATTAATTAAAGCTGCGAATACGATAGCAATACCAATACCTGCTCC (double strand) [50 bp atp9 dsDNA]
- binding [4]: binds
- binding [5]: binds

B1: 15 bp atp9 dsDNA (dsDNA)
DNA 1: GGAGCAGGTATTGGT
DNA 2: ACCAATACCTGCTCC
- binding result [6]: no binding
- binding result ([7]; 5' end of S6): no binding

B2: 25 bp atp9 dsDNA (dsDNA)
DNA 1: GGAGCAGGTATTGGTATTGCTATCG
DNA 2: CGATAGCAATACCAATACCTGCTCC
- binding result ([7]; 5' end of S8): no binding
- binding result [8]: binds
